Here are results for 1 molecule from patent US20200024357A1 (published 2020).

The test concerns the target T1, human CD39 (vascular CD39, NTPDase1, ENTPD1) expressed at the cell surface (human, UniProt P49961 1-510).
T1 construct: also called huCD39; CHO-huCD39
T1 sequence: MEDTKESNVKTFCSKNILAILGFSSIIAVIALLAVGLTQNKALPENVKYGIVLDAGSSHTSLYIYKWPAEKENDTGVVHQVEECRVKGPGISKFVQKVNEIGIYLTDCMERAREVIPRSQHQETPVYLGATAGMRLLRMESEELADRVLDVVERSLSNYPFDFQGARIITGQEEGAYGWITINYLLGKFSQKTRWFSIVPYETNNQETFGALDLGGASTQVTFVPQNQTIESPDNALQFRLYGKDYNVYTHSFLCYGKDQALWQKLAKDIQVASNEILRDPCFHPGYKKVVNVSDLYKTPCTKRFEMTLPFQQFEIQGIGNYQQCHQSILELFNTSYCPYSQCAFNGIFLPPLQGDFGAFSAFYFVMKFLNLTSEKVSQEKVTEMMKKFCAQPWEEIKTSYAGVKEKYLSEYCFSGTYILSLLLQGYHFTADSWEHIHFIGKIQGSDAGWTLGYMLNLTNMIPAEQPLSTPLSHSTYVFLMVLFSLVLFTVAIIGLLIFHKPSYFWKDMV
Put plainly: flow cytometry on CHO cells expressing human CD39. The method, then:
Cells were incubated with various concentration of unlabeled anti-CD39 antibody from 30 μg/ml to 5×10-⁴ μg/ml, for 30 minutes at 4° C. After washes, cells were incubated with Goat anti-mouse H+L labeled secondary antibody for 30 min at 4° C.
Antibodies mAb1-21 were assessed for binding to CD39 by flow cytometry as described in Example 7, using CHO cells expressing human CD39 and CHO cells expressing cynomolgus (Macaca fascicularis) CD39.
A general note: In flow cytometry, cells or beads pass a laser one at a time.

B1: mAb20 H4L1 (antibody, human IgG1, kappa, V domains shown)
VH: QVQLVQSGAEVKKPGASVKVSCKASGYTFTDYNMHWVRQAPGQRLEWIGYIVPLNGGSTFNQKFKGRATITVDTSARTAYMELSSLRSEDTAVYYCARGGTRFAYWGQGTLVTVSS
VL: DIVMTQSPDSLAVSLGERATINCRASESVDNFGVSFMYWFQQKPGQPPKLLIYGASNQGSGVPDRFSGSGSGTDFTLTISSLQAEDVAVYYCQQTKEVPYTFGGGTKVEIKR
notes: The full heavy chain carries L234A/L235E/G237A/A330S/P331S
B1: the binding result is given as “binds”.
